Assay results from US20200299408A1.

Legend:
[1] = biological target: HER2 extracellular domain (ECD) (UniProt P04626); test: HER2 binding affinity of the HER2 arm; assay and form of HER2 not stated on the sheet or in the legend
[2] = biological target: HER2 extracellular domain (ECD) (UniProt P04626); test: HER2 KD relative to 4D5 (WT); assay not stated
[3] = biological target: human HER2 on cells (human) (UniProt P04626)

Kd [1]: 15.6 nM
KD fold [2]: 31.2 fold
SKBR3 EC50 fold (relative to 4D5) [3]: 9900 fold
Substance: hu4D5.v5 (bispecific antibody)
EC50 of SKBR3 target cell killing [3]: 0.075 µg/mL
